# ± gives the uncertainty stated by the source.
# Assay: self-splicing fitness, log relative to wild type (ln ratio); higher = more splicing; Tetrahymena group I intron in knt gene, E. coli kanamycin selection, DiMSum; sequences stand for … in CUCUCU…GGAGGGAAAAGUUAUCAGGCAUGCACCUGGUAGCUAGUCUUUAAACCAAUAGAUUGCAUCGGUUUAAAAGGCAAGACCGUCAAAUUGCGGGAAAGGGGUCAACAGCCGUUCAGUACCAAGUCUCAGGGGAAACUUUGAGAUGGCCUUGCAAAGGGUAUGGUAAUAAGCUGACGGACAUGGUCCUAACCACGCAGCCAAGUCCUAAGUCAACAGAUCUUCUGUUGAUAUGGAUGCAGUUCACAGACUAAAUGUCGGUCGGGGAAGAUGUAUUCUUCUCAUAAGAUAUAGUCGGACCUCUCCUUAAUGGGAGCUAGCGGAUGAAGUGAUGCAACACUGGAGCCGCUGGGAACUAAUUUGUAUGCGAAAGUAUAUUGAUUAGUUUUGGAGUACUCGUGGUCG
# Method in brief: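 The eight P1ex-region nucleotides of an intron in the knt kanamycin-resistance gene on pET-22b(+) were all randomised and the library put into E. coli BL21(DE3). Six replicate transformations were grown overnight at 37°C or 30°C on LB agar with or without 25 μg/mL kanamycin, together with 100 μg/mL carbenicillin, 50 μM IPTG and 0.2% rhamnose. Colonies were pooled and amplicon-sequenced on an Illumina HiSeq 2500. Fitness from DiMSum is the error-weighted combination of wild-type-normalised replicate fold changes, kanamycin over none.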
sequence,measurement,setting,value
CGGCAGCAAUAUUACGUGGC,self-splicing fitness (ln),30 °C,-3.19 ± 0.33
same,self-splicing fitness (ln),37 °C,-2.02 ± 0.23
ACCCAGCAAUAUUACGCGCU,self-splicing fitness (ln),30 °C,-1.91 ± 0.097
same,self-splicing fitness (ln),37 °C,-1.36 ± 0.11
UGCAAGCAAUAUUACGAAGA,self-splicing fitness (ln),30 °C,-1.99 ± 0.27
same,self-splicing fitness (ln),37 °C,-2.3 ± 0.31
GAGAAGCAAUAUUACGUAUU,self-splicing fitness (ln),30 °C,-3.16 ± 0.14
same,self-splicing fitness (ln),37 °C,-3.08 ± 0.23
GCCAAGCAAUAUUACGCUGA,self-splicing fitness (ln),30 °C,-1.4 ± 0.1
same,self-splicing fitness (ln),37 °C,-0.943 ± 0.15
GCUCAGCAAUAUUACGCAAC,self-splicing fitness (ln),30 °C,-1.28 ± 0.16
same,self-splicing fitness (ln),37 °C,-1.07 ± 0.2
AGCAAGCAAUAUUACGUUUA,self-splicing fitness (ln),30 °C,-2.1 ± 0.13
same,self-splicing fitness (ln),37 °C,-1.96 ± 0.15
CGCGAGCAAUAUUACGUCGG,self-splicing fitness (ln),30 °C,-1.99 ± 0.086
same,self-splicing fitness (ln),37 °C,-1.16 ± 0.093
AUGUAGCAAUAUUACGGGCU,self-splicing fitness (ln),30 °C,-2.18 ± 0.16
same,self-splicing fitness (ln),37 °C,-0.877 ± 0.16
CCGGAGCAAUAUUACGCCGA,self-splicing fitness (ln),30 °C,-3.86 ± 0.41
CAAGAGCAAUAUUACGGAUU,self-splicing fitness (ln),30 °C,-3.03 ± 0.25
same,self-splicing fitness (ln),37 °C,-3.21 ± 0.37
ACUCAGCAAUAUUACGGGUA,self-splicing fitness (ln),30 °C,-1.57 ± 0.099
same,self-splicing fitness (ln),37 °C,-0.922 ± 0.083
GUCCAGCAAUAUUACGCCGU,self-splicing fitness (ln),30 °C,-1.29 ± 0.13
same,self-splicing fitness (ln),37 °C,-0.122 ± 0.13
GUAGAGCAAUAUUACGACUU,self-splicing fitness (ln),30 °C,-0.172 ± 0.081
same,self-splicing fitness (ln),37 °C,0.104 ± 0.1
CGGAAGCAAUAUUACGGCAU,self-splicing fitness (ln),30 °C,-3.02 ± 0.34
same,self-splicing fitness (ln),37 °C,-1.55 ± 0.3
GUCAAGCAAUAUUACGCUCC,self-splicing fitness (ln),30 °C,-1.87 ± 0.28
same,self-splicing fitness (ln),37 °C,-1.62 ± 0.29
GCACAGCAAUAUUACGGGUG,self-splicing fitness (ln),30 °C,-4.37 ± 0.23
same,self-splicing fitness (ln),37 °C,-2.62 ± 0.16
AGCUAGCAAUAUUACGGACC,self-splicing fitness (ln),30 °C,-0.63 ± 0.12
same,self-splicing fitness (ln),37 °C,-0.00494 ± 0.17
CGUCAGCAAUAUUACGAGUA,self-splicing fitness (ln),30 °C,-2.55 ± 0.28
same,self-splicing fitness (ln),37 °C,-2.69 ± 0.39
UCAUAGCAAUAUUACGUUUA,self-splicing fitness (ln),30 °C,-4.13 ± 0.39
same,self-splicing fitness (ln),37 °C,-2.11 ± 0.2
UGGUAGCAAUAUUACGGCUG,self-splicing fitness (ln),30 °C,-1.99 ± 0.15
same,self-splicing fitness (ln),37 °C,-0.886 ± 0.26
AACGAGCAAUAUUACGGGGG,self-splicing fitness (ln),30 °C,-3.29 ± 0.26
same,self-splicing fitness (ln),37 °C,-3.01 ± 0.37
CCACAGCAAUAUUACGAGAG,self-splicing fitness (ln),30 °C,-2.41 ± 0.067
same,self-splicing fitness (ln),37 °C,-1.25 ± 0.065
CGGAAGCAAUAUUACGGCGA,self-splicing fitness (ln),30 °C,-0.522 ± 0.3
UGAGAGCAAUAUUACGGGCA,self-splicing fitness (ln),30 °C,-0.578 ± 0.12
same,self-splicing fitness (ln),37 °C,-0.806 ± 0.17
AUCUAGCAAUAUUACGGAGA,self-splicing fitness (ln),30 °C,-2.16 ± 0.2
same,self-splicing fitness (ln),37 °C,-1.32 ± 0.16
GAUGAGCAAUAUUACGCGCG,self-splicing fitness (ln),30 °C,-1.68 ± 0.23
same,self-splicing fitness (ln),37 °C,-0.518 ± 0.17
CACUAGCAAUAUUACGCUAC,self-splicing fitness (ln),37 °C,-2.31 ± 0.25
GUUGAGCAAUAUUACGCGGA,self-splicing fitness (ln),37 °C,-0.744 ± 0.35
CUGAAGCAAUAUUACGCUAG,self-splicing fitness (ln),30 °C,-1.1 ± 0.096
same,self-splicing fitness (ln),37 °C,-0.802 ± 0.099
CAUCAGCAAUAUUACGUAUG,self-splicing fitness (ln),30 °C,-2.16 ± 0.14
same,self-splicing fitness (ln),37 °C,-1.43 ± 0.15
CCGCAGCAAUAUUACGGAGU,self-splicing fitness (ln),30 °C,-4.11 ± 0.21
same,self-splicing fitness (ln),37 °C,-3.01 ± 0.23
GCCUAGCAAUAUUACGGGCG,self-splicing fitness (ln),30 °C,-2.03 ± 0.1
same,self-splicing fitness (ln),37 °C,-1.02 ± 0.097
UGACAGCAAUAUUACGGGUC,self-splicing fitness (ln),30 °C,-3.81 ± 0.24
same,self-splicing fitness (ln),37 °C,-2.94 ± 0.2
AGGGAGCAAUAUUACGAGAG,self-splicing fitness (ln),30 °C,-3.23 ± 0.4
same,self-splicing fitness (ln),37 °C,-3.84 ± 0.46
ACGUAGCAAUAUUACGAUUG,self-splicing fitness (ln),30 °C,-2.78 ± 0.11
same,self-splicing fitness (ln),37 °C,-1.99 ± 0.12
CGGCAGCAAUAUUACGCGUG,self-splicing fitness (ln),30 °C,-1.47 ± 0.1
same,self-splicing fitness (ln),37 °C,-0.594 ± 0.11
AAAAAGCAAUAUUACGCGAU,self-splicing fitness (ln),30 °C,-2.51 ± 0.16
same,self-splicing fitness (ln),37 °C,-1.07 ± 0.14
GCGUAGCAAUAUUACGUCUA,self-splicing fitness (ln),30 °C,-1.06 ± 0.22
same,self-splicing fitness (ln),37 °C,-0.924 ± 0.15
CUCAAGCAAUAUUACGGAUA,self-splicing fitness (ln),30 °C,-2.72 ± 0.24
same,self-splicing fitness (ln),37 °C,-2.32 ± 0.28
UCCGAGCAAUAUUACGCCAU,self-splicing fitness (ln),30 °C,-2.56 ± 0.28
same,self-splicing fitness (ln),37 °C,-3.16 ± 0.4
UAGCAGCAAUAUUACGAUAU,self-splicing fitness (ln),30 °C,-2.42 ± 0.15
same,self-splicing fitness (ln),37 °C,-2.98 ± 0.19
AGGCAGCAAUAUUACGACUA,self-splicing fitness (ln),30 °C,0.127 ± 0.11
same,self-splicing fitness (ln),37 °C,-0.125 ± 0.12

# — the supplement of paper PMC7877785
